The record followed here is the array DNA melting data of Ke et al..

The data set can be described thus: melting temperature; melt of duplexes. The conditions noted are these: sodium 0.0675 M; strand 1 µM.
As for “CGACGTGCGGTATGTGCTG+CAGCACATCAAGCACGTCG ((((((((...((((((((+))))))))...))))))))”, the midpoint of thermal melting (Tm) (usually the temperature at the midpoint of the melting transition) amounted to 54 °C. As for “CGACGTGCGCAATGTGCTG+CAGCACATGGCGCACGTCG ((((((((((.((((((((+)))))))).))))))))))”, the Tm was 63 °C. As to “CGACGTGCCGCATGTGCTG+CAGCACATTCGGCACGTCG ((((((((((.((((((((+)))))))).))))))))))”, the Tm is 59.1 °C. For the substance “CGACGTGCGGTATGTGCTG+CAGCACATGACGCACGTCG (((((((((..((((((((+))))))))..)))))))))”, the midpoint of thermal melting (Tm) is 56.6 °C. On to “CGACGTGCGACATGTGCTG+CAGCACATCCAGCACGTCG ((((((((...((((((((+))))))))...))))))))”, for which the Tm is 50.4 °C.

“CGACGTGCGGAATGTGCTG+CAGCACATTGTGCACGTCG ((((((((..(((((((((+)))))))))..))))))))”: the midpoint of thermal melting (Tm) was 53.9 °C. Turning to “CGACGTGCGCCATGTGCTG+CAGCACATGGAGCACGTCG ((((((((.((((((((((+)))))))))).))))))))”, the Tm came out at 62.3 °C.

Regarding “CGACGTGCAAGATGTGCTG+CAGCACATTCTGCACGTCG (((((((((..((((((((+))))))))..)))))))))”, the Tm was determined as 53.2 °C. As for “CGACGTGCCCGATGTGCTG+CAGCACATACCGCACGTCG ((((((((...((((((((+))))))))...))))))))”, the Tm was 47.7 °C. In the case of “CGACGTGCTCTATGTGCTG+CAGCACATAGAGCACGTCG (((((((((((((((((((+)))))))))))))))))))”, the midpoint of thermal melting (Tm) was 63 °C. The figure for “CGACGTGCCTGATGTGCTG+CAGCACATGATGCACGTCG ((((((((.(.((((((((+)))))))).).))))))))” is 49.4 °C. With “CGACGTGCCTCATGTGCTG+CAGCACATTTCGCACGTCG ((((((((...((((((((+))))))))...))))))))”, the Tm stood at 46.5 °C. The figure for “CGACGTGCGCCATGTGCTG+CAGCACATTAAGCACGTCG ((((((((...((((((((+))))))))...))))))))” is 52.1 °C. In the case of “CGACGTGCGATATGTGCTG+CAGCACATTATGCACGTCG ((((((((...((((((((+))))))))...))))))))”, the melting temperature (Tm) came to 52.2 °C. Then “CGACGTGCGAAATGTGCTG+CAGCACATTGGGCACGTCG ((((((((..(((((((((+)))))))))..))))))))”, with 54.5 °C; and “CGACGTGCATGATGTGCTG+CAGCACATAGCGCACGTCG ((((((((...((((((((+))))))))...))))))))”, with 47.4 °C; and “CGACGTGCTTCATGTGCTG+CAGCACATCCCGCACGTCG ((((((((...((((((((+))))))))...))))))))”, with 47.5 °C. For the substance “CGACGTGCCGCATGTGCTG+CAGCACATTCAGCACGTCG ((((((((.(.((((((((+)))))))).).))))))))”, the Tm is 48.9 °C.

“CGACGTGCTAGATGTGCTG+CAGCACATCCTGCACGTCG ((((((((..(((((((((+)))))))))..))))))))”: the midpoint of thermal melting (Tm) was 54.7 °C. Then “CGACGTGCCGGATGTGCTG+CAGCACATTACGCACGTCG ((((((((...((((((((+))))))))...))))))))”, with 50.1 °C; and “CGACGTGCATGATGTGCTG+CAGCACATGGGGCACGTCG ((((((((...((((((((+))))))))...))))))))”, with 50 °C. On to “CGACGTGCGGGATGTGCTG+CAGCACATACCGCACGTCG ((((((((((.((((((((+)))))))).))))))))))”, for which the melting temperature (Tm) stood at 63.1 °C.

For the substance “CGACGTGCTTCATGTGCTG+CAGCACATCTGGCACGTCG ((((((((...((((((((+))))))))...))))))))”, the Tm is 48.9 °C. In the case of “CGACGTGCTGTATGTGCTG+CAGCACATGCAGCACGTCG ((((((((((.((((((((+)))))))).))))))))))”, the midpoint of thermal melting (Tm) was 60.3 °C. Take “CGACGTGCCTAATGTGCTG+CAGCACATGCGGCACGTCG (((((((((..((((((((+))))))))..)))))))))”: the Tm amounted to 53.3 °C. With “CGACGTGCCAGATGTGCTG+CAGCACATAGTGCACGTCG ((((((((...((((((((+))))))))...))))))))”, the Tm is 45.6 °C. As to “CGACGTGCGTAATGTGCTG+CAGCACATTACGCACGTCG (((((((((((((((((((+)))))))))))))))))))”, the Tm turned out to be 63.9 °C. On to “CGACGTGCGTTATGTGCTG+CAGCACATGAGGCACGTCG ((((((((.(.((((((((+)))))))).).))))))))”, for which the Tm came to 54.1 °C. As to “CGACGTGCGCTATGTGCTG+CAGCACATGCTGCACGTCG ((((((((...((((((((+))))))))...))))))))”, the midpoint of thermal melting (Tm) was determined as 51.5 °C.

As to “CGACGTGCAGCATGTGCTG+CAGCACATACGGCACGTCG ((((((((.(.((((((((+)))))))).).))))))))”, the melting temperature (Tm) amounted to 49.3 °C. With “CGACGTGCTAAATGTGCTG+CAGCACATGGTGCACGTCG ((((((((...((((((((+))))))))...))))))))”, the midpoint of thermal melting (Tm) turned out to be 49.9 °C. Consider “CGACGTGCGCGATGTGCTG+CAGCACATCCTGCACGTCG ((((((((..(((((((((+)))))))))..))))))))”, for which the melting temperature (Tm) was 54.4 °C.

“CGACGTGCGCTATGTGCTG+CAGCACATTCCGCACGTCG (((((((((..((((((((+))))))))..)))))))))”: the Tm stood at 52.1 °C. Turning to “CGACGTGCGCCATGTGCTG+CAGCACATTCCGCACGTCG (((((((((..((((((((+))))))))..)))))))))”, the Tm turned out to be 50.9 °C. For the substance “CGACGTGCTCTATGTGCTG+CAGCACATAAGGCACGTCG ((((((((..(((((((((+)))))))))..))))))))”, the melting temperature (Tm) stood at 52.2 °C. Turning to “CGACGTGCATGATGTGCTG+CAGCACATCTTGCACGTCG (((((((((.(((((((((+))))))))).)))))))))”, the melting temperature (Tm) stood at 58.3 °C. The figure for “CGACGTGCTGTATGTGCTG+CAGCACATAGTGCACGTCG ((((((((..(((((((((+)))))))))..))))))))” is 48 °C; for “CGACGTGCCCGATGTGCTG+CAGCACATTGGGCACGTCG ((((((((((.((((((((+)))))))).))))))))))” it is 62.4 °C; for “CGACGTGCTGCATGTGCTG+CAGCACATGGTGCACGTCG ((((((((..(((((((((+)))))))))..))))))))” it is 54.2 °C. Take “CGACGTGCGGGATGTGCTG+CAGCACATCGAGCACGTCG ((((((((..(((((((((+)))))))))..))))))))”: the midpoint of thermal melting (Tm) was found to be 58.1 °C.

Take “CGACGTGCTCAATGTGCTG+CAGCACATGACGCACGTCG ((((((((...((((((((+))))))))...))))))))”: the melting temperature (Tm) came out at 48.7 °C. As to “CGACGTGCCTTATGTGCTG+CAGCACATGTGGCACGTCG (((((((((..((((((((+))))))))..)))))))))”, the midpoint of thermal melting (Tm) is 54.4 °C. Take “CGACGTGCTTCATGTGCTG+CAGCACATCTAGCACGTCG (((((((((..((((((((+))))))))..)))))))))”: the midpoint of thermal melting (Tm) was found to be 50.3 °C.

For “CGACGTGCGCTATGTGCTG+CAGCACATCCTGCACGTCG ((((((((...((((((((+))))))))...))))))))”, the Tm worked out at 48.1 °C.

With “CGACGTGCCTAATGTGCTG+CAGCACATGGCGCACGTCG ((((((((...((((((((+))))))))...))))))))”, the melting temperature (Tm) was 51.1 °C. Then “CGACGTGCGATATGTGCTG+CAGCACATGAAGCACGTCG ((((((((...((((((((+))))))))...))))))))”, with 56.1 °C.

Regarding “CGACGTGCCGGATGTGCTG+CAGCACATACCGCACGTCG ((((((((.(.((((((((+)))))))).).))))))))”, the melting temperature (Tm) came out at 53.6 °C.
